Reference: US20240132578A1 (published 2024)

Experiments:
[1] = molecular target: T1, Recombinant gp41 generated with sequences derived from HxB2 clone of HIV-1, expressed in Pichia pastoris (HIV-1 clone HxB2, UniProt P04578 541-682); assay: ELISA, B cell culture supernatant on directly immobilised recombinant gp41
T1 construct: domain: gp41; also called gp41HxB2

[2] = molecular target: HIV-1 92UG005 Env (clade D pseudovirus) (HIV-1); assay: cell-based or functional assay
[3] = molecular target: HIV-1 93UG077 Env (clade A pseudovirus) (HIV-1); assay: cell-based or functional assay
[4] = molecular target: HIV-1 IAVI-C22 Env (clade C pseudovirus) (HIV-1); assay: cell-based or functional assay
[5] = molecular target: HIV-1 IAVI-C18 Env (clade C pseudovirus) (HIV-1); assay: cell-based or functional assay
[6] = molecular target: HIV-1 93IN905 Env (clade C pseudovirus) (HIV-1); assay: cell-based or functional assay
[7] = molecular target: HIV-1 94UG103 Env (clade A pseudovirus) (HIV-1); assay: cell-based or functional assay
[8] = molecular target: aMLV envelope (negative control pseudovirus); assay: cell-based or functional assay
[9] = molecular target: HIV-1 IAVI-C3 Env (clade C pseudovirus) (HIV-1); assay: cell-based or functional assay
[10] = molecular target: HIV-1 92UG024 Env (clade D pseudovirus) (HIV-1); assay: cell-based or functional assay
[11] = molecular target: HIV-1 92BR020 Env (clade B pseudovirus) (HIV-1); assay: cell-based or functional assay
[12] = molecular target: HIV-1 APV-17 Env (clade B pseudovirus) (HIV-1); assay: cell-based or functional assay
[13] = molecular target: HIV-1 92TH021 Env (CRF01_AE pseudovirus) (HIV-1); assay: cell-based or functional assay
[14] = molecular target: HIV-1 APV-6 Env (clade B pseudovirus) (HIV-1); assay: cell-based or functional assay
[15] = molecular target: HIV-1 92RW020 Env (clade A pseudovirus) (HIV-1); assay: cell-based or functional assay
[16] = molecular target: HIV-1 APV-13 Env (clade B pseudovirus) (HIV-1); assay: cell-based or functional assay
[17] = molecular target: HIV-1 CMU02 Env (CRF01_AE pseudovirus) (HIV-1); assay: cell-based or functional assay
[18] = molecular target: HIV-1 JRCSF Env (clade B pseudovirus) (HIV-1, UniProt P20871 32-848); assay: cell-based or functional assay
[19] = molecular target: T2, recombinant gp41HxB2 (HIV-1 clone HxB2, UniProt P04578 541-682); assay: ELISA on recombinant gp41
T2 construct: domain: gp41

B1: B cell culture supernatant of well 1496 C9 (source of antibody 1496_C09 (PG9) (TCN-109)) (antibody, V domains shown)
VH: QRLVESGGGVVQPGSSLRLSCAASGFDFSRQGMHWVRQAPGQGLEWVAFIKYDGSEKYHADSVWGRLSISRDNSKDTLYLQMNSLRVEDTATYFCVREAGGPDYRNGYNYYDFYDGYYNYHYMDVWGKGTTVTVSS
VL: QSALTQPASVSGSPGQSITISCNGTSNDVGGYESVSWYQQHPGKAPKVVIYDVSKRPSGVSNRFSGSKSGNTASLTISGLQAEDEGDYYCKSLTSTRRRVFGTGTKLTVL
binding result [1]: no binding

B2: B cell culture supernatant of well 1443 C16 (source of antibody 1443_C16 (PG16) (TCN-116)) (antibody, V domains shown)
VH: QEQLVESGGGVVQPGGSLRLSCLASGFTFHKYGMHWVRQAPGKGLEWVALISDDGMRKYHSDSMWGRVTISRDNSKNTLYLQFSSLKVEDTAMFFCAREAGGPIWHDDVKYYDFNDGYYNYHYMDVWGKGTTVTVSS
VL: QSALTQPASVSGSPGQTITISCNGTSSDVGGFDSVSWYQQSPGKAPKVMVFDVSHRPSGISNRFSGSKSGNTASLTISGLHIEDEGDYFCSSLTDRSHRIFGGGTKVTVL
binding result [1]: no binding

B3: 1495_C14 (PGC14) (antibody, human IgG1, lambda, V domains shown)
VH: DGHLVQSGVEVKKTGATVKISCKVSGYSFIDYYLHWVQRAPGKGLEWVGLIDPENGEARYAEKFQGRVTIIADTSIDTGYMEMRSLKSEDTAVYFCAAGAVGADSGSWFDPWGQGTLVTVSS
VL: SYELTQPPSVSVSPGQTASITCSGSKLGDKYVSWYQLRPGQSPILVMYENDRRPSGIPERFSGSNSGDTATLTISGTQALDEADFYCQAWETTTTTFVFFGGGTQLTVLG
IC50 (µg/mL), pseudovirus neutralization [2]: > 50 µg/mL
IC50 (µg/mL), pseudovirus neutralization [3]: > 50 µg/mL
IC50 (µg/mL), pseudovirus neutralization [4]: > 50 µg/mL
IC50 (µg/mL), pseudovirus neutralization [5]: > 50 µg/mL
IC50 (µg/mL), pseudovirus neutralization [6]: > 50 µg/mL
IC50 (µg/mL), pseudovirus neutralization [7]: > 50 µg/mL
IC50 (µg/mL), pseudovirus neutralization [8]: > 50 µg/mL
IC50 (µg/mL), pseudovirus neutralization [9]: 9.5 µg/mL
IC50 (µg/mL), pseudovirus neutralization [10]: > 50 µg/mL
IC50 (µg/mL), pseudovirus neutralization [11]: 0.64 µg/mL
IC50 (µg/mL), pseudovirus neutralization [12]: > 50 µg/mL
IC50 (µg/mL), pseudovirus neutralization [13]: > 50 µg/mL
IC50 (µg/mL), pseudovirus neutralization [14]: 7.41 µg/mL
IC50 (µg/mL), pseudovirus neutralization [15]: 28.6 µg/mL
IC50 (µg/mL), pseudovirus neutralization [16]: > 50 µg/mL
IC50 (µg/mL), pseudovirus neutralization [17]: > 50 µg/mL
IC50 (µg/mL), pseudovirus neutralization [18]: > 50 µg/mL

B4: B cell culture supernatant of well 1495 C14 (source of antibody 1495_C14 (PGC14)) (antibody, V domains shown)
VH: DGHLVQSGVEVKKTGATVKISCKVSGYSFIDYYLHWVQRAPGKGLEWVGLIDPENGEARYAEKFQGRVTIIADTSIDTGYMEMRSLKSEDTAVYFCAAGAVGADSGSWFDPWGQGTLVTVSS
VL: SYELTQPPSVSVSPGQTASITCSGSKLGDKYVSWYQLRPGQSPILVMYENDRRPSGIPERFSGSNSGDTATLTISGTQALDEADFYCQAWETTTTTFVFFGGGTQLTVL
binding result [1]: no binding

B5: 1495_C14 (PGC14) (antibody, human IgG1, lambda, V domains shown)
VH: DGHLVQSGVEVKKTGATVKISCKVSGYSFIDYYLHWVQRAPGKGLEWVGLIDPENGEARYAEKFQGRVTIIADTSIDTGYMEMRSLKSEDTAVYFCAAGAVGADSGSWFDPWGQGTLVTVSS
VL: SYELTQPPSVSVSPGQTASITCSGSKLGDKYVSWYQLRPGQSPILVMYENDRRPSGIPERFSGSNSGDTATLTISGTQALDEADFYCQAWETTTTTFVFFGGGTQLTVLG
binding result [19]: no binding

B6: B cell culture supernatant of well 1460 G14 (source of antibody 1460_G14 (PGG14)) (antibody, V domains shown)
VH: QVLLVQSGTEVKKPGSSVKVSCQASGGAFSSYAFSWVRQAPGQGLEWMGMITPVFGETKYAPRFQGRLTLTAEESLSTTYMELRSLTSDDTAFYYCTRDRRVVPMATDNWLDPWGQGTLVTVSS
VL: DIQLTQSPSSLSASVGDRVTVTCRASQTIHTYLNWYQQIPGKAPKLLIYGASTLQSGVPSRFSGSGSGTDFTLTINSLQPEDFATYYCQQSYSTPRTFGQGTRLDIK
binding result [1]: no binding

B7: 1456_P20 (PG20) (antibody, human IgG1, kappa, V domains shown)
VH: QVRLVQSGPEVKKPGSSVTVSCQASGGTFSSYAFTWVRQAPGQGLEWLGMVTPIFGEAKYSQRFEGRVTITADESTSTTSIELRGLTSEDTAIYYCARDRRAVPIATDNWLDPWGQGTLVTVSS
VL: DIQLTQSPSSLSASVGDRVSITCRASQTINNYLNWYQQTPGKAPKLLIYGASNLQNGVPSRFSGSGSGTDFTLTISSLQPEDFATYYCQQSFSTPRTFGQGTRLDIKR
IC50 (µg/mL), pseudovirus neutralization [2]: > 50 µg/mL
IC50 (µg/mL), pseudovirus neutralization [3]: > 50 µg/mL
IC50 (µg/mL), pseudovirus neutralization [4]: > 50 µg/mL
IC50 (µg/mL), pseudovirus neutralization [5]: > 50 µg/mL
IC50 (µg/mL), pseudovirus neutralization [6]: > 50 µg/mL
IC50 (µg/mL), pseudovirus neutralization [7]: > 50 µg/mL
IC50 (µg/mL), pseudovirus neutralization [8]: > 50 µg/mL
IC50 (µg/mL), pseudovirus neutralization [9]: > 50 µg/mL
IC50 (µg/mL), pseudovirus neutralization [10]: > 50 µg/mL
IC50 (µg/mL), pseudovirus neutralization [11]: > 50 µg/mL
IC50 (µg/mL), pseudovirus neutralization [12]: > 50 µg/mL
IC50 (µg/mL), pseudovirus neutralization [13]: > 50 µg/mL
IC50 (µg/mL), pseudovirus neutralization [14]: 25.8 µg/mL
IC50 (µg/mL), pseudovirus neutralization [15]: 50 µg/mL
IC50 (µg/mL), pseudovirus neutralization [16]: > 50 µg/mL
IC50 (µg/mL), pseudovirus neutralization [17]: > 50 µg/mL
IC50 (µg/mL), pseudovirus neutralization [18]: > 50 µg/mL

B8: B cell culture supernatant of well 1456 P20 (source of antibody 1456_P20 (PG20)) (antibody, V domains shown)
VH: QVRLVQSGPEVKKPGSSVTVSCQASGGTFSSYAFTWVRQAPGQGLEWLGMVTPIFGEAKYSQRFEGRVTITADESTSTTSIELRGLTSEDTAIYYCARDRRAVPIATDNWLDPWGQGTLVTVSS
VL: DIQLTQSPSSLSASVGDRVSITCRASQTINNYLNWYQQTPGKAPKLLIYGASNLQNGVPSRFSGSGSGTDFTLTISSLQPEDFATYYCQQSFSTPRTFGQGTRLDIK
binding result [1]: no binding

B9: 1460_G14 (PGG14) (antibody, human IgG1, kappa, V domains shown)
VH: QVLLVQSGTEVKKPGSSVKVSCQASGGAFSSYAFSWVRQAPGQGLEWMGMITPVFGETKYAPRFQGRLTLTAEESLSTTYMELRSLTSDDTAFYYCTRDRRVVPMATDNWLDPWGQGTLVTVSS
VL: DIQLTQSPSSLSASVGDRVTVTCRASQTIHTYLNWYQQIPGKAPKLLIYGASTLQSGVPSRFSGSGSGTDFTLTINSLQPEDFATYYCQQSYSTPRTFGQGTRLDIKR
IC50 (µg/mL), pseudovirus neutralization [2]: > 50 µg/mL
IC50 (µg/mL), pseudovirus neutralization [3]: > 50 µg/mL
IC50 (µg/mL), pseudovirus neutralization [4]: > 50 µg/mL
IC50 (µg/mL), pseudovirus neutralization [5]: > 50 µg/mL
IC50 (µg/mL), pseudovirus neutralization [6]: > 50 µg/mL
IC50 (µg/mL), pseudovirus neutralization [7]: > 50 µg/mL
IC50 (µg/mL), pseudovirus neutralization [8]: > 50 µg/mL
IC50 (µg/mL), pseudovirus neutralization [9]: > 50 µg/mL
IC50 (µg/mL), pseudovirus neutralization [10]: > 50 µg/mL
IC50 (µg/mL), pseudovirus neutralization [11]: > 50 µg/mL
IC50 (µg/mL), pseudovirus neutralization [12]: > 50 µg/mL
IC50 (µg/mL), pseudovirus neutralization [13]: > 50 µg/mL
IC50 (µg/mL), pseudovirus neutralization [14]: > 50 µg/mL
IC50 (µg/mL), pseudovirus neutralization [15]: > 50 µg/mL
IC50 (µg/mL), pseudovirus neutralization [16]: > 50 µg/mL
IC50 (µg/mL), pseudovirus neutralization [17]: > 50 µg/mL
IC50 (µg/mL), pseudovirus neutralization [18]: > 50 µg/mL

B10: 1456_P20 (PG20) (antibody, human IgG1, kappa, V domains shown)
VH: QVRLVQSGPEVKKPGSSVTVSCQASGGTFSSYAFTWVRQAPGQGLEWLGMVTPIFGEAKYSQRFEGRVTITADESTSTTSIELRGLTSEDTAIYYCARDRRAVPIATDNWLDPWGQGTLVTVSS
VL: DIQLTQSPSSLSASVGDRVSITCRASQTINNYLNWYQQTPGKAPKLLIYGASNLQNGVPSRFSGSGSGTDFTLTISSLQPEDFATYYCQQSFSTPRTFGQGTRLDIKR
binding result [19]: no binding

B11: 1460_G14 (PGG14) (antibody, human IgG1, kappa, V domains shown)
VH: QVLLVQSGTEVKKPGSSVKVSCQASGGAFSSYAFSWVRQAPGQGLEWMGMITPVFGETKYAPRFQGRLTLTAEESLSTTYMELRSLTSDDTAFYYCTRDRRVVPMATDNWLDPWGQGTLVTVSS
VL: DIQLTQSPSSLSASVGDRVTVTCRASQTIHTYLNWYQQIPGKAPKLLIYGASTLQSGVPSRFSGSGSGTDFTLTINSLQPEDFATYYCQQSYSTPRTFGQGTRLDIKR
binding result [19]: no binding
